Results from the nanobody polyreactivity screen of Harvey et al. (2022).

experiment: yeast display, Sf9 membrane polyspecificity reagent, FACS + sequencing; frameworks hold sequencing errors
Summary of the method: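 Using colony PCR, genes from sorted yeast display clones were amplified, then sequenced on MiSeq at 2 × 250 and filtered by CDR length. The clones had been stained with 10% biotinylated, detergent-solubilized Sf9 membrane reagent for 1 hour at 4 °C and sorted by FACS into low and high (top ~1%) gates on anti-HA and streptavidin fluorescence. Polyreactivity labels come from the gate of origin.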

Row | Sequence | polyreactivity (PSR sort gate)
1 | QVQLVETGRGLVQAGGSLRLSCAHSGRTFFSYAMGWYRQAPGKEREFVAAITGGGTYYADSVKRRFTISSDNAKNTVYLHMNSLKPEDTAVYYCAAAKRGTDYLSSFWMDYWGQVTQVTVSS | low polyreactivity
2 | QVQLVESGGGLVQAGGSLRLSCAASGSIFRRYAMGWYRPAPGKERELVAAITNRGGTTYYADSVKGRFTISRDNAKNTVYLQMNSLNPEDTAVYYCATALWVRYYGQGGYIRRYDYWGQGTQVTVSS | high polyreactivity
3 | QVQLVESGGGLVQAGGSLRLSCAASGGIFDYNAMGWYRQAPGKERELVAAITNGGSTNYADSVKGRFTISRDNAKNSVYLQMNSLKPEDTAVYYCATGYFYDYWGQGTQVTVSS | low polyreactivity
4 | QVQLVESGGGLVQAGGSLRLSCAASGSIFYEYAMGWYRKAPGKEREFVAAISSSGGSTYYADSVKGRFTISRDNAKNTVYLQMNSLKPEDTAVYYCATQSSVLSWWYDYWGQGTQVTVSS | low polyreactivity
5 | QVQLVESGGGLVQAGGSLRLSCAASGFIFGINAMGWYRQAPGKDRELVATITSGGGTNYADSVKGRFTISRDNAKNTVYLQMNSLKPEETAVYYCAAEEDYISFYVSMDYWGQGTQVTVSS | low polyreactivity
6 | QVQLVESGGGLVQAGGSLRLSCAASGRTFSYNTMGWYRQAPGTERELVARITWGGGSTNYADSVKGRFTISRDNAKNTFYLQMNSLKPEDTAVYYCAAGPSVPYGPQKVDYWGQGTQVTVSS | low polyreactivity
7 | QVQLVESGGGLVQAGGSLRLSCAASGSIFDGYGMGWYRQAAGKERELVAGITSGGSTYYADSVKGRFTFSRDNAKNTVYLQMNSLIPEDTAVYYCATVVRYSNARGDYWGQGTQVTVSS | low polyreactivity
8 | QVQLVESGGGLVQAGGSLRLSCAASGGIFSVYGMGWYRQAPGKERELVAVIRRGGSTYYADSVKGRFTISRDNAKNTVYLQMNSLKPEDTAVYYCATDYPGYFVDGNYYWGQGTQVTVSS | low polyreactivity
9 | QVQLVESGGGLVQAGGSLRLSCAASGSILHLYAMGWYRQAPGKERELVARINSGGTTNYADSVKGRFTISRDNAKNTVYLQMNSLKPEDTAVYYCAARFTPYITSDDGHYDYWGQGTQVTVSS | low polyreactivity
10 | QVQLEESGGGLVQAEGSLRLICAASGSTFVYAMGWYRQSPGKERELVAAISYSGGSTYYADSVKGRFTISRDNAKTTVYLQMNSLKPEDTAVYYCAAYLVISAQRYYYWGQGTQVTVSS | high polyreactivity
11 | QVQLVESGGGLVQAGGSLRLSCAASGSIFVRNGMGWYIQAPGKERELVASITSGTITYYADSVKGRFTISRDNAKNTVYLQMNSLKPEDTAVYYCAARRDRGRVKFYYWGQGTQVTVSS | high polyreactivity
12 | QVQLVESGGGLVQAGGSLRLSCAASGRTVWDSAMGWYRQAPGNERELVAAIASNTGSTYYADSVKGRFTISRDNAKNTVYLQLNSLKPEDTAVYYCNVEYYYDFNFNYDDYEFDYWGQGTHVTVSS | high polyreactivity
13 | QVQLVESCGGLVQAGGSLRLSCAASGIIFPPYAMGWYRPAPGKERELVAAITRSGASTYYADSVKGRFTISRDNAKNTVYLQMNSLKPEDTAVYYCAVGVPGGYWKDYYWGQGTQVTVSS | high polyreactivity
14 | QVQLVESGGGLVQAGGSLRLSCAASGLTFKYYAMGWYRQAPGKERELVAAITATGGRTYYADSVKGRFTISRDIAKNTVYLQLNSLNPEDTAVYYCNARQYQTYYFYKHDYWGQGTQVSVSS | high polyreactivity
15 | QFQLVESGGGLVQAGGSLRLSCAASGNILPAYAMGLYRQAPGKERELVAAISKSGGRTYYADSVKGRFTISLDNAKNTVYLQMNSLKPEDTAVYYALLTVLRAVPYTVRYDYWGQGTQVNVSS | high polyreactivity
16 | QVQLVESGGGLVQAGGSLRLSCAASGFTFIRYAMGWYRQAPGKERELVASISNRGGRTYYADSVKGRFTISRDNAKNTVYLQMNSLKPEDTAVYYCAAGYSTYRAVWTDNNYWGQGTQVTVSS | high polyreactivity
17 | QVQLVESGGGLVQAGGSLRLSCAASGSTFPFYAMGWYRPAPGKERELVAAITSGGSTYADSVKGRFTISRDNAKNSVYLQMNSLKPEDTAVYYCAASWPRWWRFGYWGQGTQVTVSS | low polyreactivity
18 | QVQLVESGGGLVQAGGSLRLSCAASGRIFNAYAIGWYRQAPGKERELVAAITVSGTRTYYADSVKGRFTISRDNAKNTVYLQMNSLKPEDTAVYYCAADIYHQPRYKYYYWGQGTQVTVSS | high polyreactivity
19 | QVQLVESGGGLVQAGGSLRLICAASGRTFKDYAMGWNRQAPGKERELVADISWSGGDTYYADSVKGRFTISRDNAKNTVYLQMNSLKPEDTAVYYCAADWSWCDGEDYHFEYDYWGQGTQVTVSS | low polyreactivity
20 | QVQLVESGGGLVQAGGSLRLSCAASGIIFENYAMGWYRQAPGKERELVAAINKRGSRTYFADSVTGRFTISRDNAKNTVYLQMNSLKPEDTAVYYCNAVNPYYAPTDRRVGYDYWGQGTQVTVSS | high polyreactivity

Row | Sequence | polyreactivity (PSR sort gate)
21 | QVQLVESGGGLVQAGGSLRLSCAASGSTFQRYAMGWYRQAPGKERELVAAISSRGGSTYYADSVKGRFTISRDNAKNTVYLQMNSLKPEDTAVYYCAALGHLRYDYWGQGTQVTVSS | high polyreactivity
22 | QVQVVESGGGLLQAGVSLRLSCAASGRTFSKYDMGLYRQPPGKERELVAAITRTGSSTYYADSVKGRFTISRDNAKNTVYLQMNSLKPEDTAVYYCAADRYLRYSGSSSDYGYWVQGTQVTVSS | low polyreactivity
23 | QVQLVESGGGLVQAGGSLRLSCAASGRTFNFYPMGWYRPAPGKERELVAAITVRGGSTYYSDSVKGRFTISRYNAKNTVYLQMNSLKPEDTAVYYCAADPYPYYGAYDYWGQGTQVTVSS | high polyreactivity
24 | QVQLVESGGCLVQAGGRLRLSCAASGRTFTGYTMGWYRQAPGKEREFVAAIRKSGGSTYYADSVKGRFTISRDNAKNTVYLQMNSLKPEDTAVYYCASRYRYYYTRYDYWGQGTQVTVSS | high polyreactivity
25 | QVHLVESGGGLVQAGGSLRLSCAASGITFNIYTLGWYRQAPGKEREFVATISSSGGGTYYADSVKGRFTISRDNSKNTVYFQMNSLKPEDTAVYYCARYGIGADGYDYWGQGTQVTVSS | low polyreactivity
26 | QVQLVESGGGLVQAGGSLRLSCAASGFIFSGNAMGWYRQAPGKERELVAAISWSGTSTFYADSVKGRFTISRDNAKNTVYLQMNSLKPEDTAVYYCAAETYYSYWYRPHYDYWGQGTQVTVSS | low polyreactivity
27 | QVQLVESGGGLVQAGGSLRLSCAASGSTFGVNAMGWYRQAPGKERELVAAISVSGGRTYYADSVKGRFTISRDNAKNTVYLLMNSLKPEDTAVYYCAATTYIWPYDYWGQGTQVTVSS | low polyreactivity
28 | QVQLVESGGGLVQAGGSLRLISAASGRTFRVYAIGWYRPAPGKEREFVATISVRGGSTYYADSVKGRFTISRDNAKNTVYLQMNSLKPEDTAFYYCAADSYPYVYALYDYWGQGTQVTVSS | low polyreactivity
29 | QVQHVESGGGVVQAGRSLRLRCDASGFILWYYTMGWYRPAPGKERELVAAISRGGTTYYADSVKGRFTISRDNAKKSVYLQMTSLKPEDTAVYYCNAPDNTHGIVLYDYWGQGTQVTVSS | low polyreactivity
30 | QVQLVESGGGLVQAGGSLRLSCAASGSIFSFYAMGWSRQAPGKERELVASISYSGGTTFYADSVKGRFTISRDNAKNTVYLQMNSLKTEDTAVYYSAATCEPPQRGYVKDEFDYWGQVTQVTVSS | low polyreactivity
31 | QVQLVETGGGLVQAGGSLRLSCAASGSISPINAMGWYRQPPGKERELVAAINGGGSTYYADSVKGRFTISRDNAKNTVYLQMNSLKPEDTAVYYCSRDALHYAGSLHRYGYWGQGTQVTLSS | low polyreactivity
32 | QVQLVESGGGFVQAGGSLRLSCAASGSIFYTYVMGWYRQAPGKERELVAAITWSGGSTYYADSVKGRFTISRDNAKNTVYLQMNSLKPEDTAVYYCAAVRGYRSSKYDYWGQGTQVTVSS | high polyreactivity
33 | QFQLVESGGGLVQAGGSLRLSCAASGSIFDAYAMGWYRQAPGKERELVPAITYSGGSTYYADSVKGRFTISRDNAKNTVYLQMNSLKPEDTAVYYCNTDSRVRTWFRAFTFDSWGQGTQVTVSS | low polyreactivity
34 | QVQLVESGGGLVQAGGSLRLSCAASGSTSVKYAMGWYRQAPGKERELVAAIRKRGDSTYYADSVKGRFTISRDNAKNTVYLQMNSLKPEDTAVYYCAAQYLRGRGYWGQGTQVTVSA | low polyreactivity
35 | QVQLVESWGGLVQAGGSLRLSCAASGRILGDYAMGWYRQAPGKEREFVAAIDYNGGSTNYADSVKGRFTISRDNAKNTVFLQMNSLKPEDTAVYYCAAPGFPSRNGFGYWGQGNQVTVSS | low polyreactivity
36 | QVQLVESGGGLVQAGGSLRLSCAASGFTFVSYAMGWYRQAPGKEREFVATISKRGGSTYYADSVKGRFTNSRDNAKNTVYLQMNSLKPEDTAVYYCAAARNVYRGRVYWGRYDYWGQGTQVTVSS | high polyreactivity
37 | QFQLVESGGGLVQAGGSLRLSCAASGSIFIYYAMGWYRQAPGKEREFVAAITRSGGSTFYADSVKGRFTISRDNAKNTVYLQMNSLKPEDTAVYYCATSYEGYYSIIGNKYDYWGQGTQVTVSS | high polyreactivity
38 | QDQLVESRGGLVQAGGSLRLSCAASGRTFISNAMGWYRQAPGKERELVAADISWSGGSTYYADSVKGRFTISRDNAKNTVYLQMNIMKPEDTAVYYCNTVIRPYLAYTWSEIFDYWGQGTQVNVSS | low polyreactivity
39 | QEQMQEGGGGLVQAGGSLRLICASSGYNFNGDWMGWNRQAPGKERELVATINYGATTNYADSVKGRFTISRDNAKNTVYLQMNSLKPEDTAVYYCAVGGHGAQLYVYWGQGTQVTVSN | high polyreactivity
40 | QVKLVESGGGLVQAGGSLRLSFAAYGSIFAWYGMGWYRQAPGKERELVAAISTAGSTNYADSVKGRFTISRDNAKNTVYLQMNSLKPEDTAVYYCAKKSSWYYQERFDYWGQGTQVTASS | low polyreactivity
